Here are results for 1 molecule from PMC2148210 (The Journal of Cell Biology, 1999).

For this test, the target named is microtubules assembled from bovine brain phosphocellulose-tubulin with taxol (bovine, UniProt Q6B856 1-445). As to the kind of experiment: co-sedimentation.
Chain of microtubules assembled from bovine brain phosphocellulose-tubulin with taxol (Q6B856 whole entry, looked up): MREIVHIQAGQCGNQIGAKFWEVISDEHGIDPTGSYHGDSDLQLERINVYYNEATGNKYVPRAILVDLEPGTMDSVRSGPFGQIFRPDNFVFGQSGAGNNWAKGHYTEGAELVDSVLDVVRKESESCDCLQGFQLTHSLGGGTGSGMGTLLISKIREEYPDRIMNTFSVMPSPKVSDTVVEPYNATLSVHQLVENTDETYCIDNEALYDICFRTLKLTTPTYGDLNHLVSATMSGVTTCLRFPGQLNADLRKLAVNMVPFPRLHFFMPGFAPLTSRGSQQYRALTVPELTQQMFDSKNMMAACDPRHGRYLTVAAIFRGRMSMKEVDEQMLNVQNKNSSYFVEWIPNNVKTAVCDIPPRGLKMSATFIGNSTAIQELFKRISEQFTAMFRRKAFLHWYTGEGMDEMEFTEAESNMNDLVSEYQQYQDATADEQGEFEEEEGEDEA

B1: GMAP-210 (Golgi microtubule-associated protein 210), endogenous (natural protein, human (endogenous in HeLa), UniProt Q15643 1-1979, looked up)
chain: MSSWLGGLGSGLGQSLGQVGGSLASLTGQISNFTKDMLMEGTEEVEAELPDSRTKEIEAIHAILRSENERLKKLCTDLEEKHEASEIQIKQQSTSYRNQLQQKEVEISHLKARQIALQDQLLKLQSAAQSVPSGAGVPATTASSSFAYGISHHPSAFHDDDMDFGDIISSQQEINRLSNEVSRLESEVGHWRHIAQTSKAQGTDNSDQSEICKLQNIIKELKQNRSQEIDDHQHEMSVLQNAHQQKLTEISRRHREELSDYEERIEELENLLQQGGSGVIETDLSKIYEMQKTIQVLQIEKVESTKKMEQLEDKIKDINKKLSSAENDRDILRREQEQLNVEKRQIMEECENLKLECSKLQPSAVKQSDTMTEKERILAQSASVEEVFRLQQALSDAENEIMRLSSLNQDNSLAEDNLKLKMRIEVLEKEKSLLSQEKEELQMSLLKLNNEYEVIKSTATRDISLDSELHDLRLNLEAKEQELNQSISEKETLIAEIEELDRQNQEATKHMILIKDQLSKQQNEGDSIISKLKQDLNDEKKRVHQLEDDKMDITKELDVQKEKLIQSEVALNDLHLTKQKLEDKVENLVDQLNKSQESNVSIQKENLELKEHIRQNEEELSRIRNELMQSLNQDSNSNFKDTLLKEREAEVRNLKQNLSELEQLNENLKKVAFDVKMENEKLVLACEDVRHQLEECLAGNNQLSLEKNTIVETLKMEKGEIEAELCWAKKRLLEEANKYEKTIEELSNARNLNTSALQLEHEHLIKLNQKKDMEIAELKKNIEQMDTDHKETKDVLSSSLEEQKQLTQLINKKEIFIEKLKERSSKLQEELDKYSQALRKNEILRQTIEEKDRSLGSMKEENNHLQEELERLREEQSRTAPVADPKTLDSVTELASEVSQLNTIKEHLEEEIKHHQKIIEDQNQSKMQLLQSLQEQKKEMDEFRYQHEQMNATHTQLFLEKDEEIKSLQKTIEQIKTQLHEERQDIQTDNSDIFQETKVQSLNIENGSEKHDLSKAETERLVKGIKERELEIKLLNEKNISLTKQIDQLSKDEVGKLTQIIQQKDLEIQALHARISSTSHTQDVVYLQQQLQAYAMEREKVFAVLNEKTRENSHLKTEYHKMMDIVAAKEAALIKLQDENKKLSTRFESSGQDMFRETIQNLSRIIREKDIEIDALSQKCQTLLAVLQTSSTGNEAGGVNSNQFEELLQERDKLKQQVKKMEEWKQQVMTTVQNMQHESAQLQEELHQLQAQVLVDSDNNSKLQVDYTGLIQSYEQNETKLKNFGQELAQVQHSIGQLCNTKDLLLGKLDIISPQLSSASLLTPQSAECLRASKSEVLSESSELLQQELEELRKSLQEKDATIRTLQENNHRLSDSIAATSELERKEHEQTDSEIKQLKEKQDVLQKLLKEKDLLIKAKSDQLLSSNENFTNKVNENELLRQAVTNLKERILILEMDIGKLKGENEKIVETYRGKETEYQALQETNMKFSMMLREKEFECHSMKEKALAFEQLLKEKEQGKTGELNQLLNAVKSMQEKTVVFQQERDQVMLALKQKQMENTALQNEVQRLRDKEFRSNQELERLRNHLLESEDSYTREALAAEDREAKLRKKVTVLEEKLVSSSNAMENASHQASVQVESLQEQLNVVSKQRDETALQLSVSQEQVKQYALSLANLQMVLEHFQQEEKAMYSAELEKQKQLIAEWKKNAENLEGKVISLQECLDEANAALDSASRLTEQLDVKEEQIEELKRQNELRQEMLDDVQKKLMSLANSSEGKVDKVLMRNLFIGHFHTPKNQRHEVLRLMGSILGVRREEMEQLFHDDQGGVTRWMTGWLGGGSKSVPNTPLRPNQQSVVNSSFSELFVKFLETESHPSIPPPKLSVHDMKPLDSPGRRKRDTNAPESFKDTAESRSGRRTDVNPFLAPRSAAVPLINPAGLGPGGPGHLLLKPISDVLPTFTPLPALPDNSAGVVLKDLLKQ
In the case of B1, the “fold increase of bound protein, sheared against unsheared microtubules” value was determined as 1.8 fold.
